According to patent US20210079080A1 (Hoffmann-La Roche, published 2021):

T1: VEGF-121-His (inhouse production) (human, UniProt P15692 207-395)
T1 construct: His-tagged human VEGF-A121 used in the ELISAs and (captured by an anti-His antibody) in SPR; also called hVEGF-A121; his VEGF; not shown: His tag
T1 sequence: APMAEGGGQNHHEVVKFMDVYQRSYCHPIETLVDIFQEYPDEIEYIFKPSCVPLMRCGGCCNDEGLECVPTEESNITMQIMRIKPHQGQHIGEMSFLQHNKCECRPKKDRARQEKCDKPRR

T2: human VEGF-A121 (human, UniProt P15692 207-395)
T2 sequence: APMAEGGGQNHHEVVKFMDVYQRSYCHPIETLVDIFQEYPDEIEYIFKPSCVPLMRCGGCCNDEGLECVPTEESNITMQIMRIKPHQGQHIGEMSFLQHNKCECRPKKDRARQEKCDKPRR


What was measured:
[1] = target: T1, VEGF-121-His (inhouse production); test: SPR (Biacore), hVEGF-A121 captured by anti-His antibody, Fab injected, 37° C
Protocol: (§1) The surface was regenerated by injecting 10 mM Glycine pH 1.5 for 60s. […] Rate constants were calculated using the Langmuir 1:1 binding model within the Biacore® Evaluation software.
(§2) The affinity of the antibodies was determined by SPR using the same methods as described in Example 2. All Fab fragments of antibodies of the invention as listed in table 1 and table 5 were tested.

[2] = target: T1, VEGF-121-His (inhouse production); test: inhibition ELISA: antibody titrated against 0.7 nM VEGF-121-His; blocked partner plate-bound biotinylated VEGF-R1; anti-His POD readout
[3] = target: T1, VEGF-121-His (inhouse production); test: inhibition ELISA: antibody titrated against 0.7 nM VEGF-121-His; blocked partner plate-bound biotinylated VEGF-R2; anti-His POD readout
[4] = target: T1, VEGF-121-His (inhouse production); test: SPR (Biacore), hVEGF-A121 captured by anti-His antibody, Fab injected, 25° C
Protocol: as §1, §2

human VEGF-A121 = target: T2, human VEGF-A121; test: cell-based or functional assay
[5] = target: T1, VEGF-121-His (inhouse production); test: Biacore, Fab stressed 4 w/37° C./pH 7.4
Protocol: (§3) Antibody samples were formulated in 20 mM His/HisCl, 140 mM NaCl, pH 6.0, and were split into three aliquots: one aliquot was re-buffered into PBS, respectively, and two aliquots were kept in the original formulation. The PBS aliquot and one His/HisCl aliquot were incubated for 2 weeks (2 w) at 40° C. (His/NaCl) or 37° C. (PBS) in 1 mg/ml, the PBS sample was incubated further for total 4 weeks (4 w). The third control aliquot sample was stored at −80° C.

[6] = target: T1, VEGF-121-His (inhouse production); test: inhibition ELISA: antibody titrated against 0.7 nM VEGF-121-His; blocked partner plate-bound biotinylated VEGF-R2; anti-His POD readout; remark: listed apart in the source
Protocol: (§4) Plates were incubated for 1 h at room temperature. […] Plates were incubated for 1 h at room temperature. […] After washing 3 times with 90 μl/well PB ST-buffer, 25 μl/well detection antibody (anti His POD, Bethyl, #A190-114P, 1:12000) in 1×OSEP was added. After incubation for 1 h at room temperature plates were washed 3 times with 90 μl PBST-buffer. 25 μl TMB (Roche, #11 835 033 001) was added to all wells simultaneously. After 10 min incubation at room temperature, signals were detected at 370 nm/492 nm on a Tecan Safire 2 Reader.

[7] = target: T1, VEGF-121-His (inhouse production); test: SPR (Biacore), hVEGF-A121 captured by anti-His antibody, Fab injected, 25° C; remark: listed apart in the source
Protocol: as §1
(§5) The affinity of the antibodies was determined by SPR using the same methods as described in Example 2. All Fab fragments as listed in table 1 and table 2 were tested.

[8] = target: T1, VEGF-121-His (inhouse production); test: inhibition ELISA: antibody titrated against 0.7 nM VEGF-121-His; blocked partner plate-bound biotinylated VEGF-R2; anti-His POD readout; remark: listed apart in the source
Protocol: as §4

[9] = target: T1, VEGF-121-His (inhouse production); test: Biacore, Fab stressed 2 w/37° C./pH 7.4
Protocol: as §3

[10] = target: T1, VEGF-121-His (inhouse production); test: inhibition ELISA: antibody titrated against 0.4 nM VEGF-121-His; blocked partner plate-bound biotinylated VEGF-R2; anti-His POD readout
[11] = target: T1, VEGF-121-His (inhouse production); test: Biacore, Fab stressed 2 w/40° C./pH 6.0
Protocol: as §3

[12] = target: T1, VEGF-121-His (inhouse production); test: direct ELISA on plate-coated VEGF-121-His
Protocol: After washing 3 times with 90 μl/well PBST-buffer (bidest water, 10×PBS Roche #11666789001+0.1% Tween® 20) blocking buffer (bidest water, 10×PBS Roche #11666789001+2% Bovine Serum Albumin Fraction V, fatty acid free, Roche, #10735078001+0.05% Tween® 20) was added 90 μl/well and incubated for 1 h at room temperature. […] After incubation for 1 h at room temperature, plates were again washed 3 times with 90 μl/well PBST-buffer. […] After washing 3 times with 90 μl A PBST-buffer, 25 μl TMB (Roche, #11 835 033 001) was added to each well. After 3 min incubation at RT, signals were detected at 370 nm/492 nm on a Tecan Safire 2 Reader.

[13] = target: T1, VEGF-121-His (inhouse production); test: SPR (Biacore), hVEGF-A121 captured by anti-His antibody, Fab injected, 37° C; remark: listed apart in the source
Protocol: as §1, §5

Kd [1] [nM] | IC50 (read off the curve) [2] [nM] | IC50 (read off the curve) [3] [nM] | Kd [4] [nM] | IC50 in reporter gene assay (HEK293-NFAT-RE-Luc2P/KDR cells, luminescence, 25 ng/ml VEGF-A121) (human VEGF-A121) [nM] | VEGF-binding activity after stress (relative active concentration, normalized to unstressed aliquot) [5] | IC50 (read off the curve) [6] [ng/mL] | Kd [7] [nM] | IC50 (read off the curve) [8] [nM] | VEGF-binding activity after stress (relative active concentration, normalized to unstressed aliquot) [9] | IC50 (read off the curve) [10] [nM] | VEGF-binding activity after stress (relative active concentration, normalized to unstressed aliquot) [11] | EC50 (read off the curve) [12] [nM] | Kd [13] [nM] | Binder
0.109 | ~0.9 | ~0.7 | 0.052 | – | – | – | – | – | – | – | – | – | – | HF2-5 Fab fragment (Fab, V domains shown, Prior art antibody disclosed in EP3006465) VH: EVQLVESGGGLVQPGGSLRLSCAASGFMIRSHGMQWVRQAPGKGLEYVAGISSDGSWARHSAAVEGRFTISRDDSKNTAYLQMNSLRAEDTAVYYCARDFSTGYGADSIDAWGQGTLVTVSS VL: DIQMTQSPSSLSASVGDRVTITCSGGSDSAYGYGWYQQKPGKAPKTLIYWDDKRPSGVPSRFSGSRSGTDFTLTISSLQPEDFATYYCGAWEYSGGVGIFGQGTKVEIKR
0.11 | – | – | 0.143 | 0.59 | 101 | ~10 | 0.134 | 1 to 2 | 102 | ~0.2 | 101 | ~0.2 | 0.099 | VEGF-0089 Fab fragment (Fab, V domains shown, also called antibody VEGF-0089) VH: EVQLVESGGGLVQPGGSLRLSCAASGFTFTNYAMTWVRQAPGKGLEWVSSIGNGGGIYTYYADSVKGRFTISRDNSKNTLYLQMNSLRAEDTAVYYCAKGDNLFDSWGPGTLVTVSS VL: DIQMTQSPASLSASVGDRVTITCRASQSIYSSLNWYQQKPGKAPKLLIYASTLQSGVPSRFSGSASGTDFTLTISSLQPEDVATYYCQQYQNFPRTFGQGTKLEIKR
